Assay [1] concerns the target PVR-CD4TM-GFP (human). The experiment in a line: flow cytometry; HEK-293T cells transfected with PVR-CD4TM-GFP; CD226-Fc at 10 ug/ml; PE anti-human Fc. A general note: A flow cytometer gives signals particle by particle.
Assay [2] has as its target PVR Q82K+S72N double variant-CD4TM-GFP (human). The experiment in a line: flow cytometry; HEK-293T cells transfected with PVR Q82K+S72N double variant-CD4TM-GFP; CD226-Fc at 10 ug/ml (heading of FIG. 8A); PE anti-human Fc.
Assay [3] has as its target PVR Q82K variant-CD4TM-GFP (human). Description: flow cytometry; HEK-293T cells transfected with PVR Q82K variant-CD4TM-GFP; CD226-Fc at 1 ug/ml (heading of FIG. 8A); PE anti-human Fc.
In assay [4] the target is PVR-CD4TM-GFP (human). The experiment in a line: flow cytometry; HEK-293T cells transfected with PVR-CD4TM-GFP; CD226-Fc at 1 ug/ml; PE anti-human Fc.
Assay [5] has as its target PVR Q82K+S72N double variant-CD4TM-GFP (human). The experiment in a line: flow cytometry; HEK-293T cells transfected with PVR Q82K+S72N double variant-CD4TM-GFP; CD226-Fc at 1 ug/ml (heading of FIG. 8A); PE anti-human Fc.
Assay [6] deals with PVR Q82K variant-CD4TM-GFP (human). The experiment in a line: flow cytometry; HEK-293T cells transfected with PVR Q82K variant-CD4TM-GFP; CD226-Fc at 10 ug/ml (heading of FIG. 8A); PE anti-human Fc.
Assay [7] has as its target PVR S72N variant-CD4TM-GFP (human). Description: flow cytometry; HEK-293T cells transfected with PVR S72N variant-CD4TM-GFP; CD226-Fc at 1 ug/ml; PE anti-human Fc.
For assay [8] the target is unchanged. The experiment in a line: flow cytometry; HEK-293T cells transfected with PVR S72N variant-CD4TM-GFP; CD226-Fc at 10 ug/ml; PE anti-human Fc.
For assay [9], the target named is PVR Q82K variant-CD4TM-GFP (human). Description: flow cytometry; HEK-293T cells transfected with PVR Q82K variant-CD4TM-GFP; PE anti-human Fc.
The target in assay [10] is PVR S72N variant-CD4TM-GFP (human). The experiment in a line: flow cytometry; HEK-293T cells transfected with PVR S72N variant-CD4TM-GFP; PE anti-human Fc.
Assay [11] deals with PVR Q82K+S72N double variant-CD4TM-GFP (human). The experiment in a line: flow cytometry; HEK-293T cells transfected with PVR Q82K+S72N double variant-CD4TM-GFP; PE anti-human Fc.
In assay [12] the target is PVR-CD4TM-GFP (human). The experiment in a line: flow cytometry; HEK-293T cells transfected with PVR-CD4TM-GFP; Fc fusion detected with PE anti-human Fc; PE against FITC (GFP).

Chain of CD226-Fc (Q15762 19-254): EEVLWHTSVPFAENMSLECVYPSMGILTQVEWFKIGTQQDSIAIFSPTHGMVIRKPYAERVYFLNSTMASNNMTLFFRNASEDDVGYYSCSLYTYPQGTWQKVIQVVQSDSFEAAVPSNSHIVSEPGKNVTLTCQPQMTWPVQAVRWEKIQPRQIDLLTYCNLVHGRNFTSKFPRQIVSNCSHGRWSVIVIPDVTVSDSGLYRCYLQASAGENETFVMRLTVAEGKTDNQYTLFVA

With “CD226-Fc (from UniProt Q15762 19-254) (Fc fusion)”, the MFI worked out at 409 in [1]; 93.3 in [2]; 247 in assay [3]; 205 in [4]; 17.9 in assay [5]; 521 in [6]. In addition, the MFI stood at 16.5 in assay [7] and 104 in assay [8].

As to “TIGIT-Fc (from UniProt Q495A1 22-141) (Fc fusion)”, the MFI in assay [9] is 605; in [10] it was 530; in assay [11], 795; in assay [12], 389.

The record behind these values is patent US20160346368A1.
